Measured values as given in paper PMC8138767, “Intrinsically disordered substrates dictate SPOP subnuclear localization and ubiquitination activity” (The Journal of Biological Chemistry, 2021).
Values joined by “and” are separate entries in the source; they are usually repeats but may differ in a detail not shown here. Identical values can stand only once. Where no end group is shown, it is not given here.

What was measured:
[1] = tested on: SPOP–MATH substrate-binding groove; assay: 1H,15N HSQC NMR titration of 15N–SPOP–MATH with Pdx1 peptides; design: species or system human
Protocol: (§1) NMR data collection and analysis
(§2) NMR data were collected on Bruker Avance III 500, 600, or 850 MHz spectrometers equipped with TCI triple-resonance cryoprobes. All data collection and initial processing were carried out in TopSpin (Bruker). NMR experiments on all proteins were collected in 50 mM sodium phosphate, pH 6.5, 50 mM sodium chloride, 5 mM DTT, 0.01% sodium azide, and 5% D2O unless otherwise noted.
Addition of Pdx1 peptides into ^15N–SPOP–MATH was monitored by sensitivity-enhanced ^1H, ^15N HSQC. The peptides were mixed in a 4:1 peptide:SPOP mole ratio with between 0.1 and 0.2 mM ^15N–SPOP–MATH. Each experiment consisted of 16 scans and 2048 × 256 complex data points. Spectral comparison was carried out in NMRFAM-Sparky using the assigned ^15N-SPOP-MATH spectrum as a reference. Integrated peak intensities before and after the addition of peptide were compared and normalized within each dataset, and the percent change (1 − Ibound/Iunbound) was plotted on the surface of published SPOP–MATH cocrystal structures (PDB IDs: 3IVV or 6F8F) ([25], [33]) using PyMol (PyMOL Molecular Graphics System, Version 2.1.1, Schrödinger, LLC). In each case, surface coloring corresponds to thresholds of intensity change, where the greatest resonance intensity changes are reflected by the lightest color. […]

[2] = biological target: T1, SPOP–MATH (residues 28–166) (Homo sapiens, UniProt O43791); assay: Competition fluorescence anisotropy, displacement of f-Puc from SPOP–MATH; assay type: binding; conditions: competition FA
T1 construct: glutathione S-transferase (GST) (N, cleaved yes); 6X His (N, cleaved yes); made in house; host or cells: E. coli BL-21(DE3)
Description: An Escherichia coli codon-optimized DNA sequence encoding amino acids 205 to 283 of the human Pdx1 sequence (Pdx1-C) in the multiple cloning site of pET49b(+) was purchased from GeneArt (Thermo Fisher). The pET49b(+) backbone encodes for N-terminal glutathione S-transferase and 6X His tags, followed by a 3C protease recognition motif. In all experiments described herein, a mutant containing an exogenous tryptophan at the N terminus of the human Pdx1-C sequence was used for the purposes of quantitation. Mutations in Pdx1-C were generated by Q5 site-directed mutagenesis (New England Biolabs) with primers designed on NEBbasechanger.com according to the manufacturer protocol. Similarly, an E. coli–optimized DNA sequence encoding residues 28 to 166 of human SPOP (SPOP–MATH) was purchased in pET49b(+) from GeneArt. […] A plasmid encoding His–SUMO–SPOP human residues 28 to 359 harboring a tobacco etch virus protease recognition site directly N terminal to the beginning of the native SPOP protein sequence was generated previously ([21]).
All FA experiments were conducted in 50 mM sodium phosphate, pH 6.5, 50 mM sodium chloride, 5 mM DTT, 1% BSA, and 0.01% Triton X-100. In all experiments, the source of fluorescence signal was f-Puc purchased from GenScript, at a final concentration of 40 nM. For direct FA measurements, SPOP–MATH or SPOP28–359 of concentrations between 0.001 and 300 μM was added to wells of 96- or 384-well plates containing f-Puc and buffer. For competition-mode experiments, serial dilutions of each competitor (Pdx1 peptide or recombinant protein) were prepared ranging from ∼0.01 μM to ∼2 mM (concentration range varied based on peptide solubility) in wells of 96- or 384-well plates containing 40 nM f-Puc and 6 μM SPOP–MATH or SPOP28–359. The fluorescence polarization of each well was measured (from which FA was calculated) using either a TECAN Infinite M1000 Pro or BioTek Synergy 4 fluorometer. All experiments were performed with at least three technical replicates. FA data points were fit to a complete competitive binding model ([23]) to determine dissociation constants using in-house Python scripts (see Quantification and statistical analysis).
All titrations were performed in triplicate for rigor. Direct FA titrations were performed to determine the dissociation constants of the fluorescent probe toward SPOP constructs. Direct titration data were fit according to equation 6 in ([54]). Competition mode titration data were fit according to the fitting function in ([23]). Average dissociation constants and standard error from the mean for all constructs from competition experiments may be found in Table S4. The python scripts used in plotting and fitting may be found at https://github.com/idpemery/spop-pdx1.

SPOP28–359 = biological target: T2, SPOP28–359 (Homo sapiens, UniProt O43791); assay: Competition fluorescence anisotropy, displacement of f-Puc from oligomeric SPOP28–359; assay type: binding; conditions: competition FA; 40 nM f-Puc, 6 μM SPOP28–359; 50 mM sodium phosphate pH 6.5, 50 mM NaCl, 5 mM DTT, 1% BSA, 0.01% Triton X-100; complete competitive binding model; ± standard deviation of three independent replicates (Table S4)
T2 construct: A plasmid encoding His–SUMO–SPOP human residues 28 to 359; His-SUMO (N, cleaved yes); made in house; host or cells: E. coli Rosetta BL-21(DE3)
Description: An Escherichia coli codon-optimized DNA sequence encoding amino acids 205 to 283 of the human Pdx1 sequence (Pdx1-C) in the multiple cloning site of pET49b(+) was purchased from GeneArt (Thermo Fisher). The pET49b(+) backbone encodes for N-terminal glutathione S-transferase and 6X His tags, followed by a 3C protease recognition motif. In all experiments described herein, a mutant containing an exogenous tryptophan at the N terminus of the human Pdx1-C sequence was used for the purposes of quantitation. Mutations in Pdx1-C were generated by Q5 site-directed mutagenesis (New England Biolabs) with primers designed on NEBbasechanger.com according to the manufacturer protocol. […]
All FA experiments were conducted in 50 mM sodium phosphate, pH 6.5, 50 mM sodium chloride, 5 mM DTT, 1% BSA, and 0.01% Triton X-100. In all experiments, the source of fluorescence signal was f-Puc purchased from GenScript, at a final concentration of 40 nM. […] The fluorescence polarization of each well was measured (from which FA was calculated) using either a TECAN Infinite M1000 Pro or BioTek Synergy 4 fluorometer. […] FA data points were fit to a complete competitive binding model ([23]) to determine dissociation constants using in-house Python scripts (see Quantification and statistical analysis). […]

[3] = biological target: f-Puc, fluorescein-labeled peptide of the SPOP substrate Puc (residues 91-106); assay: fluorescence polarisation; direct fluorescence anisotropy titration: SPOP construct (0.001-300 μM) added to 40 nM f-Puc; 50 mM sodium phosphate pH 6.5, 50 mM NaCl, 5 mM DTT, 1% BSA, 0.01% Triton X-100
[4] = biological target: f-Puc (fluorescein-labeled Puc peptide); assay: fluorescence polarisation; direct fluorescence anisotropy: SPOP construct 0.001-300 μM added to 40 nM f-Puc; 50 mM sodium phosphate pH 6.5, 50 mM NaCl, 5 mM DTT, 1% BSA, 0.01% Triton X-100
[5] = biological target: T3, SPOP-MATH (human SPOP residues 28-166) (human, UniProt O43791 28-166); assay: fluorescence polarisation; competition fluorescence anisotropy: competitor (~0.01 μM to ~2 mM) displaces 40 nM f-Puc from 6 μM SPOP-MATH or SPOP28-359; complete competitive binding fit; 50 mM sodium phosphate pH 6.5, 50 mM NaCl, 5 mM DTT, 1% BSA, 0.01% Triton X-100; conditions: both partners purified
T3 construct: N-terminal Gly-Pro-Gly cloning artefact left after 3C protease; speckle-type POZ protein (SPOP), human, MATH domain, residues 28-166; uniformly 15N-labelled for the NMR experiments; also called 15N-SPOP-MATH; source: E. coli BL-21(DE3), purified (Ni-NTA, 3C protease, second Ni-NTA, Sephacryl S100); not shown: GST, N-terminal, cleaved; His6, N-terminal, cleaved

[6] = biological target: T4, SPOP28-359 (human SPOP residues 28-359) (human, UniProt O43791 28-359); assay: as above; conditions: both partners purified
T4 construct: also called oligomeric SPOP; source: E. coli Rosetta BL-21(DE3), purified (Ni-NTA, TEV protease, second Ni-NTA, Superdex 200); not shown: His, N-terminal, cleaved; SUMO, N-terminal, cleaved

[7] = biological target: T5, SPOP–MATH (human SPOP residues 28–166) (human, UniProt O43791 28-166); assay: fluorescence polarisation; competition fluorescence anisotropy: competitor ~0.01 μM to ~2 mM against 40 nM f-Puc and 6 μM SPOP–MATH; 50 mM sodium phosphate pH 6.5, 50 mM NaCl, 5 mM DTT, 1% BSA, 0.01% Triton X-100; complete competitive binding fit; conditions: both partners purified
T5 construct: N-terminal Gly–Pro–Gly cloning artifact left after 3C protease; speckle-type POZ protein (SPOP), human, MATH domain, residues 28-166; Uniformly 15N (or 13C,15N) enriched for the NMR experiments in which it is the observed protein; also called monomeric SPOP–MATH; ^15N–SPOP–MATH; source: E. coli BL-21(DE3), purified (Ni-NTA, 3C protease, second Ni-NTA, Sephacryl S100 gel filtration); not shown: …

[8] = biological target: T6, SPOP_(28–359) (human SPOP residues 28–359) (human, UniProt O43791 28-359); assay: fluorescence polarisation; competition fluorescence anisotropy: competitor against 40 nM f-Puc and 6 μM SPOP_(28–359); 50 mM sodium phosphate pH 6.5, 50 mM NaCl, 5 mM DTT, 1% BSA, 0.01% Triton X-100; complete competitive binding fit; conditions: both partners purified
T6 construct: also called His–SUMO–SPOP (before cleavage); source: E. coli Rosetta BL-21(DE3), purified (Ni-NTA, TEV protease, second Ni-NTA, Superdex 200); not shown: His, N-terminal, cleaved; SUMO, N-terminal, cleaved

[9] = biological target: T1, SPOP–MATH (residues 28–166); assay: (HACA)CON NMR of 13C,15N–Pdx1-C with SPOP–MATH; assay type: binding; conditions: 13C direct-detect (HACA)CON, 500 MHz, 25 °C, pH 6.5
Protocol: as §1, §2
Addition of SPOP–MATH into ^13C, ^15N–Pdx1-C was monitored by ^13C direct-detect (HACA)CON experiments ([44]) consisting of 16 scans and 1024 × 128 complex data points. SPOP–MATH was added to ^13C, ^15N–Pdx1-C such that the final concentrations were 0.35 mM and 0.37 mM, respectively. Peaks from each spectrum were integrated and used to calculate a percent intensity change in Pdx1-C resonances after binding of SPOP–MATH. SPOP28–359 was added to ^13C, ^15N–Pdx1-C at a 4-fold molar excess and detected by HSQC or (HACA)CON. Line broadening precluded residue-specific analysis of SPOP28–359 and Pdx1-C.

T1 sequence (O43791 28-166): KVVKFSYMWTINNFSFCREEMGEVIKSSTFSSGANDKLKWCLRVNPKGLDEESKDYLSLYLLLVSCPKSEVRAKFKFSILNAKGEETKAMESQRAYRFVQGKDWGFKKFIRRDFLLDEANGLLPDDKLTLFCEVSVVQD
T4 sequence (O43791 28-359): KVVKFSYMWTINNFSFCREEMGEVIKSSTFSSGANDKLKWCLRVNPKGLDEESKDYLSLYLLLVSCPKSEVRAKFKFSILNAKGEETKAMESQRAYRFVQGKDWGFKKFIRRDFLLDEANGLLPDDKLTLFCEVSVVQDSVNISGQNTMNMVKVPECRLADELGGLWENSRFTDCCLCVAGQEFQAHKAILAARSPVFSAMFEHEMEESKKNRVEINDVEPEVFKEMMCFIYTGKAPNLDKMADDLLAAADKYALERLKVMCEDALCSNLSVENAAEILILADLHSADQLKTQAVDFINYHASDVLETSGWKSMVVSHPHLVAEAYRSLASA
T3 sequence (O43791 other isoform, or with tags, fused parts or gaps): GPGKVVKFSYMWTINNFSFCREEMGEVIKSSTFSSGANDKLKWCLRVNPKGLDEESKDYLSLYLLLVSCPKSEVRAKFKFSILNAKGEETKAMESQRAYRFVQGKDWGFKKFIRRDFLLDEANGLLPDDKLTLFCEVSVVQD
T6 sequence (O43791 28-359): as the sequence (O43791 28-359) above
T2 sequence (O43791 28-359): as above
T5 sequence (O43791 other isoform, or with tags, fused parts or gaps): as the sequence (O43791 other isoform, or with tags, fused parts or gaps) above

## Ac-GVAEPEQDCAVTSGEELLALPP [Pdx1–SBM1, SB motif 1 peptide of Pdx1 (residues 224–236)]
[1]; SBM1 and SBM2 peptides added to 15N-SPOP-MATH in equimolar ratios
  relative SB affinity from mixed-peptide NMR: higher SB affinity of Pdx1–SBM1 than Pdx1–SBM2
[1]; peptide:15N-SPOP–MATH 4:1, 0.1–0.2 mM 15N–SPOP–MATH, 50 mM sodium phosphate pH 6.5, 50 mM NaCl, 5 mM DTT
  HSQC spectral changes in SPOP–MATH: spectral changes are primarily localized to the substrate-binding groove

## ENLACDEVTSTTSSST [Puc, reference compound]
[2]; 40 nM f-Puc, 6 μM SPOP–MATH, 50 mM sodium phosphate pH 6.5, 50 mM NaCl, 5 mM DTT, 1% BSA, 0.01% Triton X-100, complete competitive binding model, ± standard deviation of three independent replicates (Table S4)
  Kd: 2600 ± 400 nM
SPOP28–359
  Kd: 2600 ± 1000 nM

## SPOP28-359 (human SPOP residues 28-359) (from UniProt O43791 28-359) (domain or fragment)
[3]
  Kd: 2550 nM and 2620 nM

## SPOP-MATH (human SPOP residues 28-166) (from UniProt O43791 28-166) (domain or fragment)
[3]
  Kd: 2620 nM and 2550 nM

## SPOP–MATH (human SPOP residues 28–166) (from UniProt O43791 28-166) (domain or fragment)
[4]
  Kd: 2600 nM

B1: Puc peptide (residues 91-106), unlabeled (peptide)
peptide: ENLACDEVTSTTSSST
notes: puckered protein (Puc), residues 91-106; also called dark Puc peptide; unlabeled Puc peptide; source: synthetic peptide (Tufts University Core Facility, HPLC purified)
[5]
  Kd: 2.6 µM
[6]
  Kd: 2.6 µM

B2: Pdx1–SBM1f peptide (Pdx1 residues 224–234) (peptide)
peptide: EQDCAVTSGEE
notes: human Pdx1 residues 224-234, shorter SBM1 peptide used for fluorescence anisotropy; source: synthetic peptide (Tufts University Core Facility, HPLC purified)
[7]
  Kd: 140 µM

B3: Pdx1-C (C-terminal intrinsically disordered region of human Pdx1) (domain or fragment)
chain: GPGWEDKKRGGGTAVGGGGVAEPEQDCAVTSGEELLALPPPPPPGGAVPPAAPVAAREGRLPPGLSASPQPSSVAPRRPQEPR
notes: N-terminal Gly-Pro-Gly cloning artefact left after 3C protease; pancreatic and duodenal homeobox 1 (Pdx1), human, amino acids 205-283 by the methods; the exogenous tryptophan may be what is counted as residue 204 (surmise); also called 13C,15N-Pdx1-C; source: E. coli BL-21(DE3), purified (Ni-NTA, 3C protease, second Ni-NTA, heat, anion exchange flow-through); not shown: GST, N-terminal, cleaved; …
[5]
  Kd: 32 µM
[6]
  Kd: 3.5 µM

B4: Pdx1-C (C-terminal intrinsically disordered region of human Pdx1) (domain or fragment)
chain: B3 chain
notes: N-terminal Gly–Pro–Gly cloning artifact left after 3C protease; pancreatic and duodenal homeobox 1 (Pdx1), human, amino acids 205-283 (methods); The results' 204–283 may count the added tryptophan as position 204; 13C,15N enriched for NMR; also called ^13C, ^15N-Pdx1-C; Pdx1 C terminus; source: E. coli BL-21(DE3), purified (Ni-NTA, 3C protease, second Ni-NTA, heat, anion exchange flow-through); …
[8]
  fold enhancement in binding affinity compared with SPOP–MATH: ~10 fold

B5: Pdx1-C: recombinant human Pdx1 C-terminal intrinsically disordered region (residues 204–283) (protein)
chain: B3 chain
modifications: left off: GST, N-terminal, cleaved | His6, N-terminal, cleaved
[2]; Fig. 5 and Table S4
  apparent affinity for SPOP–MATH, in words: higher apparent affinity for SPOP–MATH than the strongest individual SB motif alone
[9]
  resonance intensity loss in Pdx1-C on addition of SPOP-MATH: marked resonance intensity loss in two specific locations: amino acids 220 to 235 (highlighted in teal) and amino acids 265 to 275
